Data published in patent US9114144B2, “Kallikrein-inhibitor therapies” (Dyax Corp., priority 2002, dated 2015).
Positions of bridges follow the written chain, without caps; N, C: chain ends. No end group written: not given here.

Tests used:
human plasma kallikrein = human plasma kallikrein (Homo sapiens, UniProt P03952); assay: Kallikrein inhibition assay, Ki,app; type: biochemical; conditions: fold higher than aprotinin
Protocol: The potency assay of KI polypeptides, such as PEP-1, described herein was a kinetic test, which measured fluorescence generation following the kallikrein-mediated cleavage of a substrate, […] amino methyl coumarin. A known amount of kallikrein was incubated with buffer, with a serially diluted KI polypeptide reference standard, or serially diluted KI polypeptide test samples. Each sample was run in triplicate. The substrate solution was added, and the plate read immediately using an excitation wavelength of 360 nm and an emission wavelength of 460 nm. At least two each of the reference standard and sample curves were required to have an R-squared value of ≧0.95 to be considered valid.

kallikrein = assay: Kallikrein inhibitory activity in plasma and CSF of non-ischemic mice after iv treatment; type: in vivo
Protocol: […] analysis was performed to determine whether DX-88 was able to cross the blood-brain barrier. Non-ischemic mice were treated iv with saline or DX-88 (10 μg/mouse or 30 μg/mouse) and plasma was drawn 30 or 60 min after administration. Thirty minutes after DX-88 treatment, plasma kallikrein inhibitory activity was 2 and 4 times higher in mice treated with […], respectively.
The same dose of DX-88 was given at the beginning of ischemic period. Twenty four hours after ischemia, neurological deficits and infarct size were evaluated.

human plasma kallikrein, sequence (P03952 20-390 partner limits assumed): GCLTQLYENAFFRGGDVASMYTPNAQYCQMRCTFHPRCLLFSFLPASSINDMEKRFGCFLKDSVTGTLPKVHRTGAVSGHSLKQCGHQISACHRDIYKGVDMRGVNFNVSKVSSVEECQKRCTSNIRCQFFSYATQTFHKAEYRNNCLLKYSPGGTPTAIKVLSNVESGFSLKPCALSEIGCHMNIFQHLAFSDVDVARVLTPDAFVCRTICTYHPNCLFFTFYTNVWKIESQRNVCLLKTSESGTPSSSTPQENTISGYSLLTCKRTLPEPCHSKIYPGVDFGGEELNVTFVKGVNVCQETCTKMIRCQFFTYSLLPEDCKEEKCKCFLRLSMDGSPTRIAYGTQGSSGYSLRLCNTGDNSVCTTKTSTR
human plasma kallikrein, sequence (P03952 391-638 limits assumed): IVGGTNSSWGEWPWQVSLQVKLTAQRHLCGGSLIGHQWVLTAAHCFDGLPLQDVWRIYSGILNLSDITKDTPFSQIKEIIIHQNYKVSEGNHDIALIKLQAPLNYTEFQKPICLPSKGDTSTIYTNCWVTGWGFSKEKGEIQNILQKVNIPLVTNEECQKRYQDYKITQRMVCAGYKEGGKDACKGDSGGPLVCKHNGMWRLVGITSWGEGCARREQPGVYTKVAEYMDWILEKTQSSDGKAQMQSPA

Sequence: EAMHSFCAFKADDGPCRAAHPRWFFNIFTRQCEEFIYGGCEGNQNRFESLEECKKMCTRD (disulfide 7-57, 16-40, 32-53) [PEP-1]
- affinity (Ki) for kallikrein relative to aprotinin (human plasma kallikrein): 1000 times
- affinity (Ki) for kallikrein relative to aprotinin (human plasma kallikrein; listed as DX-88): at least 1000 times
- inhibitory activity in cerebral spinal fluid (CSF) (kallikrein; 30 μg iv, CSF drawn 30 or 60 min after administration): marked inhibitory activity
- inhibitory activity in CSF (kallikrein; 30 μg/mouse iv, thirty minutes after treatment): marked inhibitory activity
- crossing of the blood-brain barrier (kallikrein; intact blood-brain barrier, active form): can cross rapidly the intact blood-brain barrier
